Laboratory results reported in patent publication US10792367B2, “Conjugates comprising an GLP-1/glucagon dual agonist, a linker and hyaluronic acid” (SANOFI, dated 2020).
Starred links: 1 amine or outer side, 2 acyl side, 3 side chain; linkers in the order of their positions; H or OH if unused. Non-standard residues stand in square brackets, D forms with d. Groups on a side chain read outwards from the residue. No end group written: not given here. *: point of attachment. γGlu = O=C(O)[C@H](CCC(=O)[*:2])N[*:1]; Stearoyl = CCCCCCCCCCCCCCCCCC(=O)*

Target: human GLP-1 receptor (human, UniProt P43220)
Assay: cell-based or functional assay

## H[dS]QGTFTSDLSKQK([γGlu-Stearoyl])DEQLAKDFIEWLKAGGPSSGAPPPS-NH2 [peptide of SEQ ID NO: 6 (GLP-1/Glucagon agonist, exendin-4 derivative)]
  EC50 hGLP-1R (cAMP response, HTRF): 5.1 pM
